Earlier results, collected in article PMC9607845.
Like-named read-outs stand apart in the source and are kept apart here. Each block holds one substance with its values, some of them ahead of it.

Assays:
[1] = molecular target: SMRT peptide (Homo sapiens) (UniProt Q9Y618)
[2] = molecular target: SMRT SMRT peptide (Homo sapiens) (UniProt Q9Y618)
[3] = molecular target: BCOR BCOR peptide (Homo sapiens) (UniProt Q6W2J9)
[4] = molecular target: BCOR peptide (Homo sapiens) (UniProt Q6W2J9)
[5] = molecular target: Mig6 segment 1 peptide segment 1 (Homo sapiens) (UniProt Q9UJM3)
Chain of Mig6 segment 1 peptide segment 1 (Homo sapiens) (Q9UJM3 334-363): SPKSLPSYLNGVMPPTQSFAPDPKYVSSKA

[6] = molecular target: Mig6 segment 1 peptide (Homo sapiens) (UniProt Q9UJM3)
Chain of Mig6 segment 1 peptide (Homo sapiens) (Q9UJM3 336-364): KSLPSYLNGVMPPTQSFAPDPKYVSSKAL

[7] = molecular target: p63 peptide (Homo sapiens) (UniProt Q9H3D4)
[8] = molecular target: p73 peptide (Homo sapiens) (UniProt O15350)
Chain of p73 peptide (Homo sapiens) (O15350 whole entry): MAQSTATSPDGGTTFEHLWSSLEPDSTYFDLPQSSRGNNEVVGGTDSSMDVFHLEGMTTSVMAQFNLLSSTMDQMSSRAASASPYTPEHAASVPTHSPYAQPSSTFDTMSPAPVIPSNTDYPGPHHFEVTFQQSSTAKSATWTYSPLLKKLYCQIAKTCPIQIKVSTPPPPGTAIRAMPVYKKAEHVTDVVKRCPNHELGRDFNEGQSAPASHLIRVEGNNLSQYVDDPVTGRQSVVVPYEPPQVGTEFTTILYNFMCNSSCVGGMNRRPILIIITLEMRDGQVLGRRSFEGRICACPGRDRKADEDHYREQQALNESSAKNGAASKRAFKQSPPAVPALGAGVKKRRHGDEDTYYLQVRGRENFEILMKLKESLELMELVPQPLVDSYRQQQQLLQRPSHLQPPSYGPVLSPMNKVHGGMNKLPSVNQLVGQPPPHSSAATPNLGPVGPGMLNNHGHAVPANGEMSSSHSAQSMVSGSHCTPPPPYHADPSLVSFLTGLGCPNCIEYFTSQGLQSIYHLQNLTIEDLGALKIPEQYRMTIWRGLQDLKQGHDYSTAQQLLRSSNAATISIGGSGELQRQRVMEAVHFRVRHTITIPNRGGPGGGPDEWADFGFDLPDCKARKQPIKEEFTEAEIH

[9] = molecular target: p63 peptide (Homo sapiens) (UniProt Q9H3D4); remark: listed apart in the source
[10] = molecular target: p73 peptide (Homo sapiens) (UniProt O15350); remark: listed apart in the source

Chain of MDM2 MDM2N (Q00987 17-125): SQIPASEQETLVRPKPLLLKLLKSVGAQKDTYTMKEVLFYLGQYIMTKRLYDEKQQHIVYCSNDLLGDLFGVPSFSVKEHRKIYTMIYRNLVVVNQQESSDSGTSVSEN
Chain of SMRT peptide (Homo sapiens) (Q9Y618 whole entry): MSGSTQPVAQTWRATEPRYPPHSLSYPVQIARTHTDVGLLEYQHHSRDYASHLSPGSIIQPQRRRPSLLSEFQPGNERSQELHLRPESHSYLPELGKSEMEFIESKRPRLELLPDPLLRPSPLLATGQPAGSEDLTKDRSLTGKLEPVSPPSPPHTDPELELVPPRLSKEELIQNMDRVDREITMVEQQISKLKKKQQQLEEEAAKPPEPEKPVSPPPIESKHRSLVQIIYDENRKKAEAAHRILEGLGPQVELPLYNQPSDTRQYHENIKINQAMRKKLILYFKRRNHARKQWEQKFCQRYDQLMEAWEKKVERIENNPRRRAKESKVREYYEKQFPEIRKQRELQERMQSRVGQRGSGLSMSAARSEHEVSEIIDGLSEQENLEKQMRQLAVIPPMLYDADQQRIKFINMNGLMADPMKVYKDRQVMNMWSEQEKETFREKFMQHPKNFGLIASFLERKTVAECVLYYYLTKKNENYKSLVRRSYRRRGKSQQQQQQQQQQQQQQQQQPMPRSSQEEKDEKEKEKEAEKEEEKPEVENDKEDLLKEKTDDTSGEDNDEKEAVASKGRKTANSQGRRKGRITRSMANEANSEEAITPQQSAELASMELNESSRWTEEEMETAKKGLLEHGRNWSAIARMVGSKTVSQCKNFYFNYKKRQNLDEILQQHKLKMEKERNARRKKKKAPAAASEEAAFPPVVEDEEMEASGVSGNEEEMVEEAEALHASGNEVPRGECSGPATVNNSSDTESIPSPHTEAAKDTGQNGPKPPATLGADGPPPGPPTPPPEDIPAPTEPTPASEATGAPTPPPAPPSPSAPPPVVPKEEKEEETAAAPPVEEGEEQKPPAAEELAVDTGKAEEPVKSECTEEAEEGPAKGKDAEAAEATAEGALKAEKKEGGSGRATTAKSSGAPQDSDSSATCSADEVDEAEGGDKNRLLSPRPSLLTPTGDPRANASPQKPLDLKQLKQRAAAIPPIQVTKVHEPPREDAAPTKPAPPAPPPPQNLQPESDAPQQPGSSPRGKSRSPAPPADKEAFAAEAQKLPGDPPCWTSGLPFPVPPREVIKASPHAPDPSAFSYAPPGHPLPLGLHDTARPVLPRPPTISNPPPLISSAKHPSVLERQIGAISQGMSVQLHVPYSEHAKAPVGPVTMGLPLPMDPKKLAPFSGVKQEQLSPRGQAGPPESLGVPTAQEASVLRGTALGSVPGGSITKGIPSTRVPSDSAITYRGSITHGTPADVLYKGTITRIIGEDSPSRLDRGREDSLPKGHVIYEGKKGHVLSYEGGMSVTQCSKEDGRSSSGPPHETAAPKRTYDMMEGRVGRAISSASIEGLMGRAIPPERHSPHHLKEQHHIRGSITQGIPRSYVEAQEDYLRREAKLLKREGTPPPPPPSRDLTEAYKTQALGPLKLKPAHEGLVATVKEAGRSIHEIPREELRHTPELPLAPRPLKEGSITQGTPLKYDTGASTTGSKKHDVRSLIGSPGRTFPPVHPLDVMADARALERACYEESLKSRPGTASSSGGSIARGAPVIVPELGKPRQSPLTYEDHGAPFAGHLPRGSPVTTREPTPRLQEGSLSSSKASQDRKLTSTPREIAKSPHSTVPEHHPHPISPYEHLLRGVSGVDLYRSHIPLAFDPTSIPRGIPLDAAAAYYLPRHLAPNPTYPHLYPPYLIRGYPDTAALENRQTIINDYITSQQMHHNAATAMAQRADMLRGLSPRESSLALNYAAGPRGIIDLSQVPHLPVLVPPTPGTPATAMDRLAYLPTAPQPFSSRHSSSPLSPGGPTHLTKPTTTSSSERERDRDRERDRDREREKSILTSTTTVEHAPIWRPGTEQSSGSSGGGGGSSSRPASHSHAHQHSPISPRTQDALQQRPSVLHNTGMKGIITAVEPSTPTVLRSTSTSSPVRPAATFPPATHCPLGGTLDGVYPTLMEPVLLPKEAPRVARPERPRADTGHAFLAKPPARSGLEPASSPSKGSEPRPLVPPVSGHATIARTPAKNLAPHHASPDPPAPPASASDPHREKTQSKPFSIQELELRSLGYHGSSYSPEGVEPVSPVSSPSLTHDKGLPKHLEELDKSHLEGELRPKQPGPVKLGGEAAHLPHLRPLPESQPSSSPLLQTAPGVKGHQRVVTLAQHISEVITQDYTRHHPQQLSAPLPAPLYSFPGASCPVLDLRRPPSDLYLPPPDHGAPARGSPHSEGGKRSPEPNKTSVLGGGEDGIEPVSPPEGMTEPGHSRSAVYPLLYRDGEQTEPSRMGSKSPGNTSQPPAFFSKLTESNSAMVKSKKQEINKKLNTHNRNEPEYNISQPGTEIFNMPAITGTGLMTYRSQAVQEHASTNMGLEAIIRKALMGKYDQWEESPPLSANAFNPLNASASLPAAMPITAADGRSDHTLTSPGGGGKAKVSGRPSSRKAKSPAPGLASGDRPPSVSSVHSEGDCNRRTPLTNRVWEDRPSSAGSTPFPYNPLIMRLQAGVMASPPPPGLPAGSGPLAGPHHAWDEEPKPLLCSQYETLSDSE
Chain of BCOR peptide (Homo sapiens) (Q6W2J9 whole entry): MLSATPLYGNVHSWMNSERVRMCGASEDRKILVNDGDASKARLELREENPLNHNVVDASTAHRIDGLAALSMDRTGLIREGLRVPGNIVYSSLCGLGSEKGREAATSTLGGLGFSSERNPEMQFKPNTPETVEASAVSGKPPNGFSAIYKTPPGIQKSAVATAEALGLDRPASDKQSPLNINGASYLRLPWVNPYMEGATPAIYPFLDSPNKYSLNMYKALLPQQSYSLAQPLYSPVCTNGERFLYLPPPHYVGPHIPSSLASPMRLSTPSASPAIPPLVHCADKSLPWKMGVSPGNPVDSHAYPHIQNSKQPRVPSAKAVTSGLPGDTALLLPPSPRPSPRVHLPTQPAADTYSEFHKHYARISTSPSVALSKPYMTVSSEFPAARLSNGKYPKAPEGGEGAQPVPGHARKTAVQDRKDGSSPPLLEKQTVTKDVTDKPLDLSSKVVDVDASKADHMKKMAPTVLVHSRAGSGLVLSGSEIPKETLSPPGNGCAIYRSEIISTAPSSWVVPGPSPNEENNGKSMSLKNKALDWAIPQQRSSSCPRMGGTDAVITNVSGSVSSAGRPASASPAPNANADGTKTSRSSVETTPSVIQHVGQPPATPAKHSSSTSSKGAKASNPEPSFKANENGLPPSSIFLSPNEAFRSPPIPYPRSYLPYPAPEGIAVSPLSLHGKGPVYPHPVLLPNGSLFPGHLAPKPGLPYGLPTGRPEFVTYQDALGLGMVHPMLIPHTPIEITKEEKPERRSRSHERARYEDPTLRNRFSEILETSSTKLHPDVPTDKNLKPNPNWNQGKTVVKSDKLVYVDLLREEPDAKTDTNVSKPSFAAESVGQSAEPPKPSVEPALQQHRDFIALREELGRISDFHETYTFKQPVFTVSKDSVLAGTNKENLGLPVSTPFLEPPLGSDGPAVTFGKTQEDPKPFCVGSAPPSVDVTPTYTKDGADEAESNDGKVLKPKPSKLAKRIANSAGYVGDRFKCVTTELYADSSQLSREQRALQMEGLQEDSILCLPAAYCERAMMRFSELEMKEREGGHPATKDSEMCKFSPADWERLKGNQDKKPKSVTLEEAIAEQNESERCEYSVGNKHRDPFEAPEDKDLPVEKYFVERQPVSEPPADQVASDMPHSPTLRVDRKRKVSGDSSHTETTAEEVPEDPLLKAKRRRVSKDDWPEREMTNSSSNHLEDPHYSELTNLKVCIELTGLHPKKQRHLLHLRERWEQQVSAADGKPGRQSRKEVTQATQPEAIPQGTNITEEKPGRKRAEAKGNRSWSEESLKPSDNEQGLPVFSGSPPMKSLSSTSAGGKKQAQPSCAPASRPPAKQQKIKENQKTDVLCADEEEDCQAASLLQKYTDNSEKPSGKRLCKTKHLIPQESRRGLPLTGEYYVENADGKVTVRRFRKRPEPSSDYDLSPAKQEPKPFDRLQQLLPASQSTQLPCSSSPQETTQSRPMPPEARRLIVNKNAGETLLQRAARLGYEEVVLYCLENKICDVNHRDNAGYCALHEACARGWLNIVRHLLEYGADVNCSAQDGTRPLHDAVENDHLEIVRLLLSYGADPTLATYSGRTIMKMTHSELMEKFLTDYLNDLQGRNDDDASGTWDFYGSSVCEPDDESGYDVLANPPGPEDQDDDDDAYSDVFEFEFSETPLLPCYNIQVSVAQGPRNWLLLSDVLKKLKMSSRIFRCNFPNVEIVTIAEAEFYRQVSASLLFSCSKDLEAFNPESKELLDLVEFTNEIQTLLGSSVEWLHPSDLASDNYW

- Kd [1]: 11 µM
- Kd [2]: 11 µM
- Kd [3]: 1300 nM
- Kd [4]: 1300 nM
Substance: Bcl6 BTB (from UniProt P41182)

- Kd [5]: 13 µM
- Kd [6]: 13 µM
Substance: EGFR kinase domain C-lobe (from UniProt P00533)

- Kd [7]: 26 µM
- Kd [8]: 1400 nM
Substance: MDM2 MDM2N (from UniProt Q00987)

- Kd [9]: 26 µM
- Kd [10]: 1400 nM
Substance: MDM2 N-terminal domain (from UniProt Q00987)
